Reference: publication PMC5762396 (Archives of biochemistry and biophysics, 2017)
Each block holds one binder with its values, some of them ahead of it.

Molecular target: G-actin (WT α-skeletal muscle actin from chicken) (chicken, UniProt P68139 1-377)
Assay: atomic force microscopy

peak value of unbinding force: 105 ± 2.2 pN
B1: Tmod2[L73D] (natural protein)
chain: MALPFQKGLEKYKNIDEDELLGKLSEEELKQLENVLDDLDPESATLPAGFRQKDQTQKAATGPFDREHLLMYDEKEALEQKDREDFVPFTGEKKGRVFIPKEKPVETRKEEKVTLDPELEEALASASDTELYDLAAVLGVHNLLNNPKFDEETTNGEGRKGPVRNVVKGEKAKPVFEEPPNPTNVEASLQQMKANDPSLQEVNLNNIKNIPIPTLKEFAKSLETNTHVKKFSLAATRSNDPVALAFAEMLKVNKTLKSLNVESNFITGTGILALVEALRENDTLTEIKIDNQRQQLGTAVEMEIAQMLEENSRILKFGYQFTKQGPRTRVAAAITKNNDLVRKKRVEGDRR

peak value of unbinding force: 64 ± 3.6 pN
B2: Tmod2_(1-346) (domain or fragment)
chain: MALPFQKGLEKYKNIDEDELLGKLSEEELKQLENVLDDLDPESATLPAGFRQKDQTQKAATGPFDREHLLMYLEKEALEQKDREDFVPFTGEKKGRVFIPKEKPVETRKEEKVTLDPELEEALASASDTELYDLAAVLGVHNLLNNPKFDEETTNGEGRKGPVRNVVKGEKAKPVFEEPPNPTNVEASLQQMKANDPSLQEVNLNNIKNIPIPTLKEFAKSLETNTHVKKFSLAATRSNDPVALAFAEMLKVNKTLKSLNVESNFITGTGILALVEALRENDTLTEIKIDNQRQQLGTAVEMEIAQMLEENSRILKFGYQFTKQGPRTRVAAAITKNNDLVRKKRV
